Measurements: patent US20210206877A1

Molecular target: BACE1 endogenous to primary cortical neurons from E16.5 CD1 mice (mouse) (UniProt P56818)
Assay: cell-based or functional assay

Chain of BACE1 endogenous to primary cortical neurons from E16.5 CD1 mice (mouse) (P56818 46-501): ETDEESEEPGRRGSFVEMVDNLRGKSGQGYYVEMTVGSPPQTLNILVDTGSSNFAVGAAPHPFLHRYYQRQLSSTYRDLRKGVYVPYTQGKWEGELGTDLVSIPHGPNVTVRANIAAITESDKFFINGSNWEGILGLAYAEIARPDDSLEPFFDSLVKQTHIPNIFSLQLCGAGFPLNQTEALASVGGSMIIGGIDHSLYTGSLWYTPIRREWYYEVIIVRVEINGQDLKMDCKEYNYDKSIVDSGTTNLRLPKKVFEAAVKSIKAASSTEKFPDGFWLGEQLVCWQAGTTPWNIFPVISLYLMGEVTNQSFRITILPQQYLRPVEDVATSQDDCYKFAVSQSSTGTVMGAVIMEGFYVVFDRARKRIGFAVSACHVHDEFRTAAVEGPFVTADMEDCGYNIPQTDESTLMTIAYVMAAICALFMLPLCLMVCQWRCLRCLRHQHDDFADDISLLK

Substance: antibody YW412.8.31
- IC50, inhibition of Aβx-40 production in primary mouse cortical neuron cultures (sandwich ELISA of supernatants): 2.9 nM
- maximum inhibition of Aβx-40 production in primary mouse cortical neuron cultures: 62%
